{"source": "patent US20250368745A1", "about": "(published 2025)", "note": "“And” between values parts separate entries of the source, which are not always exact repeats. Equal values may be shown once."}
{"target": "T1, human IL-18BP (human, UniProt O95998 31-194)", "T1 construct": "UniProt printed as 095998; also called hIL-18BP", "T1 sequence": "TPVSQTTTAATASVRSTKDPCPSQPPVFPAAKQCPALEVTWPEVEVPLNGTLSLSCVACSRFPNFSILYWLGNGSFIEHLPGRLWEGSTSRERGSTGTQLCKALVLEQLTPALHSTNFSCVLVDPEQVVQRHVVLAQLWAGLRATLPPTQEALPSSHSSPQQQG", "assay": "BLI, apparent KD"}
{"binder": "SA301a HC-T57L (antibody, name in Kabat numbering, V domains shown, IgG1 kappa) VH: QVQLQESGPGLVKPSQTLSLTCTVSGYSITSDYNSHWIRQPPGKGLEWIGYIHYSGSLNYNPSLKSRVTISRDTSKNQFSLKLSSVTAADTAVYYCARNYGSIYVNYFDYWGQGTLVTVSS VL: EIVLTQSPATLSLSPGERATLSCSASSSVSYMYWYQQKPGQAPRPLIYRTSNLASGIPARFSGSGSGTDFTLTISSLEPEDFAVYYCQQYHSYPTFGGGTKVEIK", "Kd": "0.32 nM"}
{"binder": "SA301a HC-T57Y (antibody, name in Kabat numbering, V domains shown, IgG1 kappa) VH: QVQLQESGPGLVKPSQTLSLTCTVSGYSITSDYNSHWIRQPPGKGLEWIGYIHYSGSYNYNPSLKSRVTISRDTSKNQFSLKLSSVTAADTAVYYCARNYGSIYVNYFDYWGQGTLVTVSS VL: EIVLTQSPATLSLSPGERATLSCSASSSVSYMYWYQQKPGQAPRPLIYRTSNLASGIPARFSGSGSGTDFTLTISSLEPEDFAVYYCQQYHSYPTFGGGTKVEIK", "Kd": "1.74 nM"}
{"binder": "SA301a HC-Y59E (antibody, name in Kabat numbering, V domains shown, IgG1 kappa) VH: QVQLQESGPGLVKPSQTLSLTCTVSGYSITSDYNSHWIRQPPGKGLEWIGYIHYSGSTNENPSLKSRVTISRDTSKNQFSLKLSSVTAADTAVYYCARNYGSIYVNYFDYWGQGTLVTVSS VL: EIVLTQSPATLSLSPGERATLSCSASSSVSYMYWYQQKPGQAPRPLIYRTSNLASGIPARFSGSGSGTDFTLTISSLEPEDFAVYYCQQYHSYPTFGGGTKVEIK", "Kd": "0.18 nM"}
{"binder": "SA301a HC-T57V (antibody, name in Kabat numbering, V domains shown, IgG1 kappa) VH: QVQLQESGPGLVKPSQTLSLTCTVSGYSITSDYNSHWIRQPPGKGLEWIGYIHYSGSVNYNPSLKSRVTISRDTSKNQFSLKLSSVTAADTAVYYCARNYGSIYVNYFDYWGQGTLVTVSS VL: EIVLTQSPATLSLSPGERATLSCSASSSVSYMYWYQQKPGQAPRPLIYRTSNLASGIPARFSGSGSGTDFTLTISSLEPEDFAVYYCQQYHSYPTFGGGTKVEIK", "Kd": "0.36 nM"}
{"binder": "SA301a HC-T57N (antibody, name in Kabat numbering, V domains shown, IgG1 kappa) VH: QVQLQESGPGLVKPSQTLSLTCTVSGYSITSDYNSHWIRQPPGKGLEWIGYIHYSGSNNYNPSLKSRVTISRDTSKNQFSLKLSSVTAADTAVYYCARNYGSIYVNYFDYWGQGTLVTVSS VL: EIVLTQSPATLSLSPGERATLSCSASSSVSYMYWYQQKPGQAPRPLIYRTSNLASGIPARFSGSGSGTDFTLTISSLEPEDFAVYYCQQYHSYPTFGGGTKVEIK", "Kd": "0.86 nM"}
{"binder": "SA301a HC-Y59N (antibody, name in Kabat numbering, V domains shown, IgG1 kappa) VH: QVQLQESGPGLVKPSQTLSLTCTVSGYSITSDYNSHWIRQPPGKGLEWIGYIHYSGSTNNNPSLKSRVTISRDTSKNQFSLKLSSVTAADTAVYYCARNYGSIYVNYFDYWGQGTLVTVSS VL: EIVLTQSPATLSLSPGERATLSCSASSSVSYMYWYQQKPGQAPRPLIYRTSNLASGIPARFSGSGSGTDFTLTISSLEPEDFAVYYCQQYHSYPTFGGGTKVEIK", "Kd": "0.79 nM"}
{"binder": "SA301a HC-T57S (antibody, name in Kabat numbering, V domains shown, IgG1 kappa) VH: QVQLQESGPGLVKPSQTLSLTCTVSGYSITSDYNSHWIRQPPGKGLEWIGYIHYSGSSNYNPSLKSRVTISRDTSKNQFSLKLSSVTAADTAVYYCARNYGSIYVNYFDYWGQGTLVTVSS VL: EIVLTQSPATLSLSPGERATLSCSASSSVSYMYWYQQKPGQAPRPLIYRTSNLASGIPARFSGSGSGTDFTLTISSLEPEDFAVYYCQQYHSYPTFGGGTKVEIK", "Kd": "0.37 nM"}
{"binder": "SA301a HC-Y59F (antibody, name in Kabat numbering, V domains shown, IgG1 kappa) VH: QVQLQESGPGLVKPSQTLSLTCTVSGYSITSDYNSHWIRQPPGKGLEWIGYIHYSGSTNFNPSLKSRVTISRDTSKNQFSLKLSSVTAADTAVYYCARNYGSIYVNYFDYWGQGTLVTVSS VL: EIVLTQSPATLSLSPGERATLSCSASSSVSYMYWYQQKPGQAPRPLIYRTSNLASGIPARFSGSGSGTDFTLTISSLEPEDFAVYYCQQYHSYPTFGGGTKVEIK", "Kd": "0.87 nM"}
{"binder": "SA301a HC-Y59S (antibody, name in Kabat numbering, V domains shown, IgG1 kappa) VH: QVQLQESGPGLVKPSQTLSLTCTVSGYSITSDYNSHWIRQPPGKGLEWIGYIHYSGSTNSNPSLKSRVTISRDTSKNQFSLKLSSVTAADTAVYYCARNYGSIYVNYFDYWGQGTLVTVSS VL: EIVLTQSPATLSLSPGERATLSCSASSSVSYMYWYQQKPGQAPRPLIYRTSNLASGIPARFSGSGSGTDFTLTISSLEPEDFAVYYCQQYHSYPTFGGGTKVEIK", "Kd": "1.57 nM"}
{"binder": "SA301a HC-Y59L (antibody, name in Kabat numbering, V domains shown, IgG1 kappa) VH: QVQLQESGPGLVKPSQTLSLTCTVSGYSITSDYNSHWIRQPPGKGLEWIGYIHYSGSTNLNPSLKSRVTISRDTSKNQFSLKLSSVTAADTAVYYCARNYGSIYVNYFDYWGQGTLVTVSS VL: EIVLTQSPATLSLSPGERATLSCSASSSVSYMYWYQQKPGQAPRPLIYRTSNLASGIPARFSGSGSGTDFTLTISSLEPEDFAVYYCQQYHSYPTFGGGTKVEIK", "Kd": "0.42 nM"}
{"binder": "SA301a HC-T57Q (antibody, name in Kabat numbering, V domains shown, IgG1 kappa) VH: QVQLQESGPGLVKPSQTLSLTCTVSGYSITSDYNSHWIRQPPGKGLEWIGYIHYSGSQNYNPSLKSRVTISRDTSKNQFSLKLSSVTAADTAVYYCARNYGSIYVNYFDYWGQGTLVTVSS VL: EIVLTQSPATLSLSPGERATLSCSASSSVSYMYWYQQKPGQAPRPLIYRTSNLASGIPARFSGSGSGTDFTLTISSLEPEDFAVYYCQQYHSYPTFGGGTKVEIK", "Kd": "0.91 nM"}
{"binder": "SA301a HC-Y59A (antibody, name in Kabat numbering, V domains shown, IgG1 kappa) VH: QVQLQESGPGLVKPSQTLSLTCTVSGYSITSDYNSHWIRQPPGKGLEWIGYIHYSGSTNANPSLKSRVTISRDTSKNQFSLKLSSVTAADTAVYYCARNYGSIYVNYFDYWGQGTLVTVSS VL: EIVLTQSPATLSLSPGERATLSCSASSSVSYMYWYQQKPGQAPRPLIYRTSNLASGIPARFSGSGSGTDFTLTISSLEPEDFAVYYCQQYHSYPTFGGGTKVEIK", "Kd": "0.35 nM"}
{"binder": "SA301a HC-Y59T (antibody, name in Kabat numbering, V domains shown, IgG1 kappa) VH: QVQLQESGPGLVKPSQTLSLTCTVSGYSITSDYNSHWIRQPPGKGLEWIGYIHYSGSTNTNPSLKSRVTISRDTSKNQFSLKLSSVTAADTAVYYCARNYGSIYVNYFDYWGQGTLVTVSS VL: EIVLTQSPATLSLSPGERATLSCSASSSVSYMYWYQQKPGQAPRPLIYRTSNLASGIPARFSGSGSGTDFTLTISSLEPEDFAVYYCQQYHSYPTFGGGTKVEIK", "Kd": "0.14 nM"}
{"binder": "SA301a HC-T57R (antibody, name in Kabat numbering, V domains shown, IgG1 kappa) VH: QVQLQESGPGLVKPSQTLSLTCTVSGYSITSDYNSHWIRQPPGKGLEWIGYIHYSGSRNYNPSLKSRVTISRDTSKNQFSLKLSSVTAADTAVYYCARNYGSIYVNYFDYWGQGTLVTVSS VL: EIVLTQSPATLSLSPGERATLSCSASSSVSYMYWYQQKPGQAPRPLIYRTSNLASGIPARFSGSGSGTDFTLTISSLEPEDFAVYYCQQYHSYPTFGGGTKVEIK", "Kd": "0.67 nM"}
{"binder": "SA301a HC-Y59P (antibody, name in Kabat numbering, V domains shown, IgG1 kappa) VH: QVQLQESGPGLVKPSQTLSLTCTVSGYSITSDYNSHWIRQPPGKGLEWIGYIHYSGSTNPNPSLKSRVTISRDTSKNQFSLKLSSVTAADTAVYYCARNYGSIYVNYFDYWGQGTLVTVSS VL: EIVLTQSPATLSLSPGERATLSCSASSSVSYMYWYQQKPGQAPRPLIYRTSNLASGIPARFSGSGSGTDFTLTISSLEPEDFAVYYCQQYHSYPTFGGGTKVEIK", "Kd": "0.08 nM"}
{"binder": "SA301a HC-T57M (antibody, name in Kabat numbering, V domains shown, IgG1 kappa) VH: QVQLQESGPGLVKPSQTLSLTCTVSGYSITSDYNSHWIRQPPGKGLEWIGYIHYSGSMNYNPSLKSRVTISRDTSKNQFSLKLSSVTAADTAVYYCARNYGSIYVNYFDYWGQGTLVTVSS VL: EIVLTQSPATLSLSPGERATLSCSASSSVSYMYWYQQKPGQAPRPLIYRTSNLASGIPARFSGSGSGTDFTLTISSLEPEDFAVYYCQQYHSYPTFGGGTKVEIK", "Kd": "0.18 nM"}
{"binder": "SA301a HC-Y59G (antibody, name in Kabat numbering, V domains shown, IgG1 kappa) VH: QVQLQESGPGLVKPSQTLSLTCTVSGYSITSDYNSHWIRQPPGKGLEWIGYIHYSGSTNGNPSLKSRVTISRDTSKNQFSLKLSSVTAADTAVYYCARNYGSIYVNYFDYWGQGTLVTVSS VL: EIVLTQSPATLSLSPGERATLSCSASSSVSYMYWYQQKPGQAPRPLIYRTSNLASGIPARFSGSGSGTDFTLTISSLEPEDFAVYYCQQYHSYPTFGGGTKVEIK", "Kd": "1.59 nM"}
{"binder": "SA301a HC-Y59K (antibody, name in Kabat numbering, V domains shown, IgG1 kappa) VH: QVQLQESGPGLVKPSQTLSLTCTVSGYSITSDYNSHWIRQPPGKGLEWIGYIHYSGSTNKNPSLKSRVTISRDTSKNQFSLKLSSVTAADTAVYYCARNYGSIYVNYFDYWGQGTLVTVSS VL: EIVLTQSPATLSLSPGERATLSCSASSSVSYMYWYQQKPGQAPRPLIYRTSNLASGIPARFSGSGSGTDFTLTISSLEPEDFAVYYCQQYHSYPTFGGGTKVEIK", "Kd": "0.12 nM"}
{"binder": "SA301a HC-Y59V (antibody, name in Kabat numbering, V domains shown, IgG1 kappa) VH: QVQLQESGPGLVKPSQTLSLTCTVSGYSITSDYNSHWIRQPPGKGLEWIGYIHYSGSTNVNPSLKSRVTISRDTSKNQFSLKLSSVTAADTAVYYCARNYGSIYVNYFDYWGQGTLVTVSS VL: EIVLTQSPATLSLSPGERATLSCSASSSVSYMYWYQQKPGQAPRPLIYRTSNLASGIPARFSGSGSGTDFTLTISSLEPEDFAVYYCQQYHSYPTFGGGTKVEIK", "Kd": "0.38 nM"}
{"binder": "SA301a HC-Y59Q (antibody, name in Kabat numbering, V domains shown, IgG1 kappa) VH: QVQLQESGPGLVKPSQTLSLTCTVSGYSITSDYNSHWIRQPPGKGLEWIGYIHYSGSTNQNPSLKSRVTISRDTSKNQFSLKLSSVTAADTAVYYCARNYGSIYVNYFDYWGQGTLVTVSS VL: EIVLTQSPATLSLSPGERATLSCSASSSVSYMYWYQQKPGQAPRPLIYRTSNLASGIPARFSGSGSGTDFTLTISSLEPEDFAVYYCQQYHSYPTFGGGTKVEIK", "Kd": "0.35 nM"}
{"binder": "SA301a HC-Y59R (antibody, name in Kabat numbering, V domains shown, IgG1 kappa) VH: QVQLQESGPGLVKPSQTLSLTCTVSGYSITSDYNSHWIRQPPGKGLEWIGYIHYSGSTNRNPSLKSRVTISRDTSKNQFSLKLSSVTAADTAVYYCARNYGSIYVNYFDYWGQGTLVTVSS VL: EIVLTQSPATLSLSPGERATLSCSASSSVSYMYWYQQKPGQAPRPLIYRTSNLASGIPARFSGSGSGTDFTLTISSLEPEDFAVYYCQQYHSYPTFGGGTKVEIK", "Kd": "0.42 nM"}
{"binder": "SA301a HC-Y59D (antibody, name in Kabat numbering, V domains shown, IgG1 kappa) VH: QVQLQESGPGLVKPSQTLSLTCTVSGYSITSDYNSHWIRQPPGKGLEWIGYIHYSGSTNDNPSLKSRVTISRDTSKNQFSLKLSSVTAADTAVYYCARNYGSIYVNYFDYWGQGTLVTVSS VL: EIVLTQSPATLSLSPGERATLSCSASSSVSYMYWYQQKPGQAPRPLIYRTSNLASGIPARFSGSGSGTDFTLTISSLEPEDFAVYYCQQYHSYPTFGGGTKVEIK", "Kd": "1.25 nM and 0.63 nM"}
